Data published in patent publication US20040137581A1 (Xencor, published 2004).
Changes are numbered by the printed parent chain. Where two headings read alike, the source gives them in different places.

T1: type I interferon receptor (UniProt P17181 28-557; P48551 27-515, limits assumed)
T1 sequence (looked up) 1: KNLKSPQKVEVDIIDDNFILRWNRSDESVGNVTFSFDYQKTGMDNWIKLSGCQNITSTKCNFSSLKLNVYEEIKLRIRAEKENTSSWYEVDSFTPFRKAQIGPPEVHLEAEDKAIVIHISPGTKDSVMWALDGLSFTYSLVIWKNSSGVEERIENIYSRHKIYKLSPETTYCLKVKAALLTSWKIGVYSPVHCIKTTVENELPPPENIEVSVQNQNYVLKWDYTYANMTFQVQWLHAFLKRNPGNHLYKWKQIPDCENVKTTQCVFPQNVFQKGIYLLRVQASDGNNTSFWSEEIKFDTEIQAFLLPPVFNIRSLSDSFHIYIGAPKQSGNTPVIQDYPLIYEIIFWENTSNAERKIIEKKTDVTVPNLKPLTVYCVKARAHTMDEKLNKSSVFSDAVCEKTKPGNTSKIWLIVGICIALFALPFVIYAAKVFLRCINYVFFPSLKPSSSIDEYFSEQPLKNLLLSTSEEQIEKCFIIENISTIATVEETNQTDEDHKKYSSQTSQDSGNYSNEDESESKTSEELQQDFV
T1 sequence (looked up) 2: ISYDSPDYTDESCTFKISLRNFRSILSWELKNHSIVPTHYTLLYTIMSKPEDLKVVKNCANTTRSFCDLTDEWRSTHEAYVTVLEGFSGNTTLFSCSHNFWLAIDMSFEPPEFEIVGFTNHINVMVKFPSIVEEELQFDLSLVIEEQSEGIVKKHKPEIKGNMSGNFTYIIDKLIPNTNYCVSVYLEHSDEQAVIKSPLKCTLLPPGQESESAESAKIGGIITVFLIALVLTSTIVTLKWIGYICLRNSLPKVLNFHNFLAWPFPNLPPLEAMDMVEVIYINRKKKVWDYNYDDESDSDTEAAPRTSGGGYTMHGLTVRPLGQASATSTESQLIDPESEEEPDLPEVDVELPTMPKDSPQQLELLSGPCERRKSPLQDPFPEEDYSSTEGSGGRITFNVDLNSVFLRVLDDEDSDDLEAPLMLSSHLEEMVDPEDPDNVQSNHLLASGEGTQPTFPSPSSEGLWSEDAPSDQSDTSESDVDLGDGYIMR

B1: IFN1_1 (ligand)
chain: MGSSHHHHHHSSGLVPRGSHMSYNLLGFLQRSSNFQSQKLLWQLNGRLEYCLKDRMNFDIPEEIKQLQQFQKEDAALTIYEMLQNIFAIFRQDSSSTGWNETIVENLLANVYHQINHLKTVLEEKLEKEDFTRGKLMSSLHLKRYYGRILHYLKAKEYSHCAWTIVRVEILRNFYFINRLTGYLRN
B2: IFB1_64 (ligand)
chain: B1 chain with L25Q, F28E, L67K, F131N, L136E, L140R
B3: IFB1_15 (ligand)
chain: B1 chain with L25Q, F28E, F131N
B4: IFB1_2 (ligand)
chain: B1 chain with L25Q
B5: IFB1_39 (ligand)
chain: B1 chain with L25Q, F28E, F131N, L136E
B6: IFB1_7 (ligand)
chain: B1 chain with L25Q, F28E
B7: IFB1_23 (ligand)
chain: B1 chain with L25Q, F28E, L136E
B8: IFB_GM2 (ligand)
chain: B1 chain with L67S, F70S, L126S, F131S, L136S, L140S
B9: IFB1_36 (ligand)
chain: B1 chain with F28E, F131N, L136E

How the values were obtained:
[1] = biological target: T1, type I interferon receptor; test: cell-based or functional assay
[2] = biological target: T1, type I interferon receptor; test: cell-based or functional assay; remark: listed apart in the source

| Binder | EC50, ISRE-luciferase reporter assay in 293T cells [1] | EC50 wt/EC50 var, ISRE-luciferase reporter assay in 293T cells [1] | EC50, ISRE-luciferase reporter assay in 293T cells [2] | EC50 wt/EC50 var, ISRE-luciferase reporter assay in 293T cells [2] |
| --- | --- | --- | --- | --- |
| B1 | 1.9 ng/mL | 1 ratio | 5.31 ng/mL | 1 ratio |
| B2 | – | – | 0.24 log ng/ml | 22.1 ratio |
| B3 | – | – | 0.319 log ng/ml | 16.6 ratio |
| B4 | – | – | 0.428 log ng/ml | 12.4 ratio |
| B5 | – | – | 0.193 log ng/ml | 27.5 ratio |
| B6 | 0.074 ng/mL | 25.7 ratio | 0.179 log ng/ml | 29.6 ratio |
| B7 | – | – | 0.277 log ng/ml | 19.2 ratio |
| B8 | 130 ng/mL | 0.015 ratio | – | – |
| B9 | – | – | 0.294 log ng/ml | 18 ratio |
